Assay results from patent publication US20260078416A1, “ORTHOGONAL METABOLIC FRAMEWORK FOR ONE-CARBON UTILIZATION” (Mojia Biotech Pte. Ltd., priority 2021, published 2026).

B1: JGI20: HACS variant; GenBank PWB41796.1 (protein)
chain: MGQITGAQIVARALKQQGVEYMFGIVGIPVIPIAMFAQREGIKFYGFRNEQSASYAAAAVGYLTGRPGVCLGVSGPGMIHGVAGMANAWSNCWPMILIGGANDSYQNGQGAFQEAPQIEAARPFAKYCARPDSLARLPFYVEQAVRTSIYGRPGAVYLDLPGDIITGAMEEEDVHFPPRCPDAPRMMAPQESIDAAMAALKSAERPLVIVGKGAAYSRAENEVREFLETTQLPYLASPMGKGVMPDDHPLSIAPARSAALLGADVILLMGARLNWMMHFGHPPRFDPKVRVIQMDISAEEIGTNVPTEVALVGDAKAITTQLNASLKQQPWQYPSETTWWTGLRKKIDENGATVAEMMADESVPMSYYRVYREIRDLIPNDAIIQNEGASTMDIGRTLMPNFLPRHRLDAGSFGTMGVGLGQAIAAAAVHPDKHVFCIEGDSAFGFSGMEVETAARYGMKNITFIIINNNGIGGGPDTLDPTRVPPSAYTPNAHYEKMAEIYGGKGYFVTEPSQLRPALEEAIKADKPAIVNIMISATSQRKPQQFAWLTR
B2: JGI15: HACS variant; GenBank HAK63664.1 (protein)
chain: MAKSEGKVNGATLMARALQQQGVQYMFGIVGFPVIPIAIAAQREGITYIGMRNEQSASYAAQAASYLTGRPQACLVVSGPGVVHALAGLANAQVNCWPMLLIGGASAIEQNGMGAFQEERQVLLASPLCKYAHQVERPERIPYYVEQAVRSALFGRPGAAYLDMPDDVILGEVEEAAVRPAATVGEPPRSLAPQENIEAALDALQSAKRPLVIVGKGMAWSRAENEVRQFIERTRLPFLATPMGKGVMPDDHPLSVGGARSHALQEADLVFLLGARFNWILHFGLPPRYSKDVRVIQLDLSAEEIGNNRQAEVALVGDGKAIVGQLNQALSSRQWFYPAETPWREAIAAKIAGNQAAVAPMIADNTSPMNYYRVYRDIAARLPRNAIIVGEGANTMDIGRTQMPNFEPRSRLDAGSYGTMGIGLGFAVAAAAVHPGRPVIAVQGDSAFGFSGMEFETAARYGMPIKVIILNNGGIGMGSPAPRDGQPGMPHALSHDARYERIAEAFGGAGFYVTDSAELGPALDAAMAFKGPAIVNIKIAATADRKPQQFNWHG

Legend:
[1] = In vitro kinetic assay of purified HACS variants; substrate propionaldehyde; assay type: biochemical; settings: for Km: read-out: Km, app
Protocol: The kinetic assay was performed with a coupled reaction providing formyl-CoA from formate catalyzed by CoA transferase CaAbfT using acetyl-CoA as a CoA donor.
In vitro kinetic assay was comprised of 100 mM KPi pH 6.9, 10 mM MgCl2, 0.15 mM TPP, 2 mM acetyl-CoA, 1 μM CaAbfT, 0.25 μM HACS variants, and 20 mM sodium formate. Reactions were incubated at room temperature for 3 min to convert formate to formyl-CoA, and then specific concentration of aldehyde (specifically acetaldehyde or propionaldehyde here) was added to the reaction. After incubating another 3 min, 1/20 of the reaction volume of 10 M NaOH solution was added to terminate the reactions. After 30 min hydrolysis, 1/20 of the reaction volume of 10 N H2SO4 was added to neutralize the pH. Samples were centrifuged at 20817×g for 15 minutes and the supernatant analyzed by GC-MS as described below.
For this analysis, 0.15 of the reaction volume of internal standard methyl succinate was added to the samples. The resulting sample was extracted into 4 mL ethyl acetate by vigorous vortexing for 20 min. The organic phase was separated and evaporated to dryness under a stream of nitrogen. The residue was dissolved in 30 μL pyridine and 30 μL N,O-Bis(trimethylsilyl)trifluoroacetamide (BSTFA) and incubated at 60° C. for 15 minutes. Compound identification and analysis was performed by GC-MS using an Agilent 7890B Series Custom Gas Chromatography system equipped with a 5977B Inert Plus Mass Selective Detector Turbo EI Bundle (for identification) and an Agilent HP-5-ms capillary column (0.25 mm internal diameter, 0.25 μm film thickness, 30 m length). Samples were analyzed by GC (1 μL injection with a 20:1 split ratio) using helium as the carrier gas at a flowrate of 1.5 mL/min and the following temperature profile: initial 90° C. for 3 min; ramp at 15° C./min to 170° C.; ramp at 20° C./min to 300° C. and hold for 8 min. The injector and detector temperature were 250° C. and 350° C., respectively.
As hypothesized from Example 3 (FIG. 22B), JGI15 had lower Km with lower kcat with respect to formaldehyde in comparison with JGI20 (Table 8). With longer chain aldehydes JGI15 and JGI20 has lower Km (sub millimolar) to acetaldehyde and propionaldehyde compared to JGI23 and JGI24, while also lower Kcat as well. Which indicates they have stronger affinity to the aldehyde and lower enzymatic activity. JGI23 and JGI24 are promising as they have better activity (higher Kcat) which have a good potential to work better in vivo by improve their affinity to substrates (lower Km). Similarly, AcHACL as lower Km with acetone while JGI15 as better Kcat (Table 8).

[2] = system: glycolate production from formaldehyde; assay: Resting-cell bioconversion pathway 1 (HACS with LmACR-EcAldA), formaldehyde as sole carbon source; assay type: cell-based, E. coli; settings: for glycolate productivity (glycolyl-CoA synthase activity) compared with RuHACL: 5 mM formaldehyde as sole carbon source
From the text: We used glycolic acid (glycolate) productivity per cell density (uM glycolate/OD600) as indicator of HACS activity. Two different enzymatic routes for glycolate synthesis are explored. The first pathway (pathway 1) is similar to the pathway used for initial screening in Example 2 with addition of an extra gene, aldehyde dehydrogenase aldA from Escherichia coli (EcAldA) overexpressed to drive flux from glycolaldehyde to glycolate (FIG. 21A). In addition, HACS and LmACR-AldA are controlled under independent inducible promoters to investigate the impact of varying relative gene expressions (FIG. 21B). The second pathway (pathway 2) involves independent fluxes of formaldehyde and formyl-CoA allowing assessment of the enzyme activity with response to changing formaldehyde concentration only, while maintaining constant formyl-CoA flux. Formyl-CoA is generated by formic acid (formate) catalyzed by the acyl-CoA transferase from Clostridium aminobutyricum (CaAbfT) (FIG. 22A).
For the in vivo prototyping, we engineered vectors to independently control expression of HACS variants and the LmACR-EcAldA (pathway 1, FIG. 21A) or CaAbfT (pathway 2, FIG. 22A), with HACS under control of the IPTG-inducible T7 promoter in pCDFDuet-1 and LmACR-EcAldA or CaAbfT under control of a cumate-inducible T5 promoter in pETDuet-1 (FIG. 21B). As a host for these vectors, we used an engineered strain of E. coli based on MG1655(DE3) with knockouts for formaldehyde (ΔfrmA) and formate (ΔfdhF ΔfdnG ΔfdoG) oxidation as well as for glycolate utilization (ΔglcD)), which we expected could compete or interfere with the analysis of our pathway. […]
Cells from the above pre-cultures were then centrifuged (4000 rpm, 22° C.), washed with the above minimal media without any carbon source, and resuspended with 1 mL of above minimal media containing indicated amounts of carbon source. […] The cells were harvested after 3 hours for LmACR-EcAldA co-expression and 1 hour for CaAbfT co-expression by centrifugation and the supernatant analyzed by HPLC or GC-MS as described in EXAMPLE 2. […]

Molecule | Kcat, app [1] | Km [1] | glycolate productivity (glycolyl-CoA synthase activity) compared with RuHACL [2] | glycolate productivity relative to RuHACL ([2]; 5 mM formaldehyde sole carbon source, optimal inducer concentrations, 3 hours)
B1 | 17.35 ± 1.97 s⁻¹ | 420 ± 60 µM | exceeding the starting reference enzyme, RuHACL | 
B2 | 11.08 ± 0.02 s⁻¹ | 200 ± 40 µM | exceeding the starting reference enzyme, RuHACL | 2.5 fold
